In the domain aggregation screens of Martell et al. (2025):

Assay: soluble fraction after stress (log2 fold change); higher = more stays soluble; pooled small domains, quantitative proteomics
Conditions: stress: pH 4
Outline: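 Aggregation propensity is read out as the fold change in how much of each domain remains soluble after acid stress. The custom small-domain libraries were pooled, held at pH 4 and analysed with high-throughput quantitative proteomics. On the log2 scale used, higher values mean more of the domain stayed soluble.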

| Sequence | soluble fraction (log2) |
| --- | --- |
| HMELEENTERVLNILIENDIISENDIAEKLEVKINGARKALYKLKEVGFVEYTKERDEEKKWWYIYFWKLN | -0.36 |
| HMELEKIRPDLDGLEIMAILGISPSPIVGRAYQYLLDLRMDRGPLGPDAAKAELLNWWSLNQPK | -1.62 |
| HMELGRQDSAQLGRWAAGILAKNGKKITGRTMEFFLSRTGDDMENISSELEKLISYTLGREVITEEDIEAV | -0.757 |
| HMELGWYVRLRRRELGLSVTALAEKAGMSQSYLSQIETGDRGNPSPESLRSLAEALEVSPRELESLV | 0.286 |
| HMELMKPPGYWQSLENAIYESKKVIKEHGFDTLPSSNKLRELDYHGLSRAISVHHSGFPNFREIMNQELGI | -0.0528 |
| HMELNDEELIKGIQELLTKIGYDPGEINGVLGIKTSSAISAFQQSRNKAITGEADLDLLVQLQIELRKITT | -1.32 |
| HMELNGVSETAKSVYSIILNNSSTVDDIVIKTKLPAAKVMQALTELELNDAVERKSGGVYALP | -0.0324 |
| HMELPADLATVLSVDDIRAIALAEVPGSTITGVELEREEGVLVYKVKFNDGSYKLYDANTGELV | -0.238 |
| HMELPPLEPIDRILVVQQPINIREQPGVLAKKIGRVSSGETLTILAKVSGQDWYFVETDNGGRGYVFKRV | -0.222 |
| HMELQYSQEIEEAQKILENLGLYRGEIDGINGINTKSAIREFQRKSGLVVDGILGPNTTNALSKGSDAYIT | 0.0515 |
| HMELVQIIGNNIRDLMTTRSVTITDLANYLNVSRQTLQNYLRGSNIIDSVKLVAVSDFFDVPVESLLQSK | -0.783 |
| HMEMGNKIKELRTKLGITQEELSKTLNVSSQAVSKWENGGLPDLELIPEIAKYFNVTTDYLFDIK | -0.723 |
| HMEMKVIPFNQMTRDQFDQLDRFLGRLAAAQAMGSLRLTKAQQNYFLNQVKQLDLYRKRILN | 0.0144 |
| HMEMTSREIIKRLEEDGWYHVKTTGDHYQMKHPTKPGKVTIVHPAKDLSIGTLRSIEKQSGVRL | ≥ 0.43 |
| HMEMVSMPGLTGSTLEFATKTLTENELKYEVVYIVDASAESGLIIRTYPTEGEMVSKKTSTIYLYIKE | -0.481 |
| HMENDGQFLRAEREKYGLTLTDIYEHTHIPIKKLKAYEMWEEEMPPRTRALLELYFDQVAFEYDS | -0.556 |
| HMENDPYEILGIARSASDDEIKAKYRALTRENHPDILMAKGVPQEFIDLANEKMAVINAAYDKIEKER | 0.12 |
| HMENEDMTGDIRVIDYIRNVAEYIQTTKGQASASQMLDRFLFPPELQYTPLDKLSGGEQRRLYLLKVLMEA | -0.575 |
| HMENEFEAYSDGSSIQLNDPSKATYVVFDRQGRLLHLFQNHSLSSLSIERKNQILIITRETADGVSVKKIV | -0.167 |
| HMENEIPVPELVGMSEADAAAKLASLGLERDTQREATADEESVGKVLRQEPTPGEYVDEGHKVTIWVGE | 0.22 |
| HMENFSTLFSRLKEERGLSNKQISSFTGAPIKEVKKWESGMGIPTEKRIVAALEGILGSEISKAI | 0.353 |
| HMENHILIIDDDLMLLKTAEEILSDQYNVSVAKSGIQALNLLNKNIIPDLILLDIDMPQMDGYETL | -0.554 |
| HMENIIFDIGFHKGEDTLFYLLKGYRVIAVDADPDLINEWQNIFKKYIENGKLLLLNYVISDT | -1.18 |
| HMENISVESKMKLLLKSLKTRDFISLPELVLKGESKLAISVILVAALELNRKGYIEVVQAEQFGEIYFKNT | 0.0399 |
| HMENKVLVITEEEKGKRLDVYLAAALEVSRSYAQQLIQGEDVVVNDKQVKANYRLSEGDVVQVQLD | -0.218 |

| Sequence | soluble fraction (log2) |
| --- | --- |
| HMENLIEELTAKNKEYIHSVTKQLILVGKSDEEVKEILNDILPQIIEGQKSGIIARKLLGAPTEFVSQYQP | -0.317 |
| HMENLQLQQLVKGLPEKMQEIVILRFSQELTMREIADIVNLPMRTVQSQLRLALKILKKEMG | 0.145 |
| HMENLSFNINSEEEGQRIDKYLSVMIEGKSRSFVQGLIEEKKVKANSKVIKSNYKLKKGDFIEVEVPEPV | 0.36 |
| HMENLSGNDIKYLRKKYNLTQKELADALGLQKFGDRTIRRWEAEETHPSKLEQSSIQSFFNSLK | 0.111 |
| HMENLTLVIGNKLKNIRNSRNLSLDDVAELTGVSKAMLGQIERGKSNPTVSTLWKISTGLRVSFSSFIDE | -0.249 |
| HMENLVPVVVATTNIEPRTQITDAMVKVEQIPALGRNESMLEDPALVVGGYATGKIYAGQSFIQPMVSK | 0.192 |
| HMENNIILNYVKDNLNITEKDAKDLIELLGSDYYHIKNETNKIAAFLDGQPYSFEKIKNLISIDKEY | -0.644 |
| HMENPLETYYSQWVSAIKREHPEASFVKDTDGKYYVEGLTKNRLAVIYENPHLVRLVNATTNLHVE | 0.14 |
| HMENPVPVIITDQNFQPLLWKNVGVPTDTIFHELSPENQKKLENLMKTMVQMPLTDDGRISGYAYYSK | 0.149 |
| HMENQFNDWSLTPSEKEVALFMLKGLSTQEIAAARNTKEKTVRQQASAVYAKSQLDGRYALAAWFFEDI | -1.04 |
| HMENQMIIYIDENDENKRLDSYLSEITPDYSRSKIQNFIKNGNVTVNDSNKKPSYLLKENDKISFELPQQ | -0.158 |
| HMENSLLSESLAKIYIKTHRYERAYEILSRLSLAVPEKNAYFADQLRFLRKVMLAESFRKQHS | 0.22 |
| HMENTSPMTPEQSKALMAYLTKRHGDSREAYLSELSQFFGRPLSSSRELTKADVSEFLNAIN | -0.0703 |
| HMENVVESIYNKMVESITNGQWAAGSKIPTENELAKTYQVSRSSVRQAISRLKALGLLESRQGSGTVIKK | 0.178 |
| HMENWMPNLVNQDKRLAINTLRELGFTEEAGNLVIREETSEDVTKDYVISTDPVAETDLADVEKVTLVVSS | -0.219 |
| HMENYIEQLTAKNSEYIHVVTRELVKIGKSDEEIKAILSDILPQIVAAQDQRVLAKDILGTPSEFTAKYAP | 0.0161 |
| HMEPDDLTVIKGIGPVAAKDLNEQGIITFAQLAKLSDKDVAKIDEHMPFSADQIKDWREQAKELAK | 0.0725 |
| HMEPDEIVLDHRKRIENSDAIVLIAPIWNFRMPAILEGWIDKVLAPPWAFKFKKLFGNYGYPVGNLKG | -0.121 |
| HMEPDTVVVPNFVGKVYASEIEGNEAYSDFTFVIKEGNDPEQDIGVVLKQTPNEGLEVKKGKEITLTINQ | -0.169 |
| HMEPEAKIDFILKAAQKRLGLYGYEKTTMQEIAADINMSKAALYYYFPDKESLFKAVVENEQEEYFH | -1.24 |
| HMEPEDVIAMERYLASGAIKGIGVTLAGRIIKKFQKETFHIIEEEPERLSEVKGISEKLAREIYQQFTQK | -0.187 |
| HMEPERRHLEVPAEAEGERIDRFLASQLENLSRSRIQALIKAGYVRNRRGTIEDPGLRVKPGDAFVVDLPP | 0.255 |
| HMEPEVEITYFKPDERKAGGAYVTVTGAVIKVDDFERLITMQDGTKIPMDDILSIDGELFLS | -1.08 |
| HMEPGEVQVDGLRFIAQPQERNDFEVALEQFRAGNFAAARKSFAAFINTYKQSGYLPSARFW | -0.152 |
| HMEPLKLGDATGDGKINLQDVLEMQKHMAGILVLKGKFFTAADVNGNGKIELVDVLSVQKYLAGVTAEV | -0.0932 |

| Sequence | soluble fraction (log2) |
| --- | --- |
| HMEPLVSKVFQVSYQKTADLVALIKSEDSKLLSARGTLISDERTSQIFVQDTPTRLERISMIVNGL | -0.895 |
| HMEPMNMYSSIKKVIGVVSGKGGVGKSLVTASLARMMRAKGYHVGIMDADITGPSIPKMYGLHEMA | 0.0444 |
| HMEPVDYEALRKELMQKVMGLFTQSRDVGIQILSSFGAKKLSDVPDDKLVAFAASVDKALAG | 0.138 |
| HMEPVQFIQFKIPDGHPWSGQLLREVRLPPGTLVVLLKHDGKNIIPNGETPLLAGDSVILSAASPT | -0.459 |
| HMEQAAQPQTGFDPRRLKAGDAVHLLALDQRGVLLEDPKPGAESAPVSVGVAGVRVVVPLREMEALPAG | -0.0942 |
| HMEQEVLDLLFDAIRSLPEKYRRLFDMSFEQGLKNAEIAALLHVSESAVKKQKASMIQQLRDDLLRKTGKD | -0.564 |
| HMEQFDFTILRELRKRAGLSIGEVSAESGVSAAVISKLERNRTRAELDTLYRLARVFGITAAELLNLAEA | -1.76 |
| HMEQIETIFLSAAPYARTHIIHLLETSELFRDKYLTIVETSNGLLIYTEDKNRLLGILNSLT | -1.24 |
| HMEQIFTELIMDGRVLGENLHRMGVDETWLLRQLRQQGYHSAREVFLAVADANKQVAVYPVS | -0.776 |
| HMEQINVTIQTEKGRIDKVLSEHLPNHSRSQIQQWLKEKHVTVNGETVRANYKVTAGDEIVVTIPEPEV | -0.18 |
| HMEQISDEDTLRKMVNEVLDNNQTQLEQYKSGKTNLIGFFVGQTLKKSAGKANPSIVNKLVNEEIYI | 0.0623 |
| HMEQISIETRIEQLLARLSETEASGFEELFADTSSRADLITTFLALLEMIRLKLVRVFQDGSFGPIRIYKR | -1.5 |
| HMEQKISVPALVGRDIEEILADTEVTGNFTIKEADKRVASNRPVGEVLEQDPGTGESAVKGTIITVTVSAG | -0.353 |
| HMEQNTKAYEQVRTLTDLLNQYRHEYYNLSAPSVSDQEYDRLFDALAALEKQTGIVMSNSPTQTVG | -0.497 |
| HMEQPAPSTTVDILGGGRAALVTANRELGLALADDEIDYLTDSFTQLGRNPVDVELMMFAQA | -0.224 |
| HMEQSLNTYSIRTVKESLFLAETKNLNKIEKLVEGIEGRLTLSEALVLFSDKLNAMSVLSHVNANT | -0.273 |
| HMEQTIKKYVNVATLNFRSGPSTSYSIISTLSKGTKVEVISTTNNWSKIIYDGKIGYVSSEYLSKSI | ≥ 0.43 |
| HMEQVPEAVGRRVRQARSDRGWTLDQLAERSEVSRRMIVNVEAGTSNASIATLLRLATALNVGLAELVA | -0.685 |
| HMEQVVFNGTGRRKSSIARVRIMSGKGNITVNGKALDEYFGEETLKVIVRQPLTVTDTLDKYDVIATVK | -0.0364 |
| HMEQYYVFFAGGMTIGTKEWYESILPENIATSYDDILEGKMMPASLEQIEFYNSHKDYDLYHLFYML | -1.4 |
| HMERAFRILELFDLKQDELPITEIAERTGLPISTAHRLLSTLETLGYIAQNPDNGRYRLGLQTFVLGSR | -1.3 |
| HMERAPAYPDGLTQREVEVLRLIASGKTDREIAEELFIGVRTVSTHVGNILNKTNSANRTEAASYANQQGL | -1.53 |
| HMEREQNIAQGREVVQRELKRLGLTDVFTVEDIGRALKFDDIDEFLSKVGFGDIQTAKITGAIALMQQALR | -0.84 |
| HMEREQNIEHGRAIVERELKRLGLSDVYTIADIATALRHDDVDQFLAKIGFGDIQSTQIGGAIAALQQR | -0.328 |
| HMEREQPFAVTEAYRGMRLDRFLQAMLPRMSRAAIQDAIDNRVRLGSGRAAKASLRPAIGDTVFFGQRI | -0.17 |
